This note sets out measurements from article PMC6053351 (2017).

Common to all, as to assay: ITC
In general terms: In ITC the heat of successive injections is recorded.

One experiment has as its target RBBP4 Glu231Ala (UniProt Q09028 1-425, Glu231Ala).
The target of experiment [1] is RBBP4 Glu126Ala/Asn128Ala/Glu179Ala (UniProt Q09028 1-425, Glu126Ala | Asn128Ala | Glu179Ala).
Experiment [2] concerns the target RBBP4, full-length, wild type (UniProt Q09028 1-425).

Sequence of RBBP4 Glu231Ala (Q09028 whole entry E231A): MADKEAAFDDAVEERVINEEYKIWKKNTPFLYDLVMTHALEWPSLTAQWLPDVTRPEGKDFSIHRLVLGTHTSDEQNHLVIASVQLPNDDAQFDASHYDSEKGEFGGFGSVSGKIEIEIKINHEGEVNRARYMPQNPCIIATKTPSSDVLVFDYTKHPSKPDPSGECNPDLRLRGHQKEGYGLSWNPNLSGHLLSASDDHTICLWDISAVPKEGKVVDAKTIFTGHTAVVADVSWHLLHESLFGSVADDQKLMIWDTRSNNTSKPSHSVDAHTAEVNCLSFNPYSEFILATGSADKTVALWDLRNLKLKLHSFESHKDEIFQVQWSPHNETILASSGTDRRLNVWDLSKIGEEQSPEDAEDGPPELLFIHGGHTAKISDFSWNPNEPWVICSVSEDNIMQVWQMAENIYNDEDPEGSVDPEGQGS
Sequence of RBBP4 Glu126Ala/Asn128Ala/Glu179Ala (Q09028 whole entry E126A/N128A/E179A): as the sequence (Q09028 whole entry E231A) above, with E126A, N128A, E179A, A231E counted along it
Sequence of RBBP4, full-length, wild type (Q09028 whole entry): as the sequence (Q09028 whole entry E231A) above, with A231E counted along it

Take KRRKLKNKRRRS [AEBP2_(379–390) peptide (RRK-rich motif, residues Lys379–Ser390)]: the Kd – broadly, the free concentration of one partner at which half of the binding sites on the other are occupied at equilibrium, for simple one-to-one binding – with RBBP4 Glu231Ala was found to be 38.5 µM; in experiment [1], 56.8 µM. In experiment [2], KARALKNKRRRS [AEBP2_(379–390) peptide with mutations Arg380Ala/Lys382Ala] had a Kd of 178 µM.
